Assay results: paper PMC3078076

Columns and labels:
Human HP1β CSD (human) [1] = assay: SEC
Human HP1β CSD (human) [2] = assay: crystal structure

Row | Substance | stoichiometry N (Human HP1β CSD (human) [1]) | stoichiometry N (Human HP1β CSD (human) [2]) | stoichiometry N (Sgo1P1 per two HP1β CSD) (Human HP1β CSD (human) [1]) | stoichiometry N (Sgo1P1 peptide per CSD dimer) (Human HP1β CSD (human) [2])
1 | Human HP1β CSD (domain or fragment) | 2 | 2 | – | –
2 | Sgo1P1 (from UniProt Q5FBB7 425-443) (peptide) | – | – | 1 | 1
